A405 nm (absorption data for one substance are collected here from patent US20090136433A1.

The assay has as its target hair (human) (human). As to the kind of experiment: binding test on 5 mg human hair; bound His-tagged protein detected with anti-polyhistidine peroxidase conjugate and TMB; buffer control A405 nm = 0.05.

With “Comparison protein YaaD from B. subtilis with His tag (from UniProt P37527 1-294)”, the A405 nm (absorption at 405 nm) (absorption at 405 nm) was determined as 0.12.
